Test results taken from the nanobody polyreactivity screen of Harvey et al. (2022).

Assay: yeast display, Sf9 membrane polyspecificity reagent, FACS + sequencing; frameworks hold sequencing errors
How it was run: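 A nanobody's polyreactivity label depends on the gate it was sorted from. Yeast display cells were stained with 10% biotinylated, detergent-solubilized Sf9 membrane reagent for 1 hour at 4 °C, enriched on streptavidin microbeads and sorted by FACS. The low and high (top ~1%) gates were set on anti-HA fluorescence for expression and streptavidin fluorescence for reagent binding.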

Row | Sequence | polyreactivity (PSR sort gate)
1 | QVQLVESGGGLVQAGGSLRLSCAASGFTFQVYAMGWYRQAPGKERELVADITESGDSTYYADSVKGRFTISRDNAKNTVYLQMNSLKPEDTAVYYCAADGGWFWSLFYTFAFDYWGQGTQVTVSS | low polyreactivity
2 | QVQLVESGGGLLQAGGSLRLSCAASGYTSSRYAMGWYRQAPGKESELLAAISGTGGSTNYADSVKGRFTISRDNAKNTVYLQMNRLKPEDSAVYYCATRSFGAGYVGVRYYYWGQATQVTVSS | high polyreactivity
3 | QVQLVESGGGLVQAGGSLRLSCAAYGSTFRYYAMGWYRQAPGKERELVAAITSSGGSTYYADSVKGRFTISRDNAKNTVFLQMNSLKPEDTAVYYCAVAVKNWVKLNYWGQGSQVTVSS | high polyreactivity
4 | QVQLVESGGGLVQAGGSLRLSCAATGRNFRYNAIGWYRQATGKERELVATISRGGGSTYYADSVKGRFTISRDNAQNTVYLQMNSLKPEDTAVYYCATRYYQDIVGYSRYDYWGQGTQVTVSS | high polyreactivity
5 | QVQLVKSGGGLVQAGGSLRLSCAASGFIIPEYTMGWYRPAPGKERELVAAISGSGGSTYYADSVKGRFTISRDNAKNTVYLQMNSLKPEDTAVYYCAASYAVSRYLQTYAHAHGYWGQGTQVTVSS | low polyreactivity
6 | QVQLVESGGGLVQAGGSLRLSCAASGFIFRTNAMGWYRQAPGKERELVAAITSSGGTTFYADSVKGRFTISRDNAKNTVYLQMNSLKPEDTAVYYCAAAYKHRTRSWTYGYWGQGTQVTVSS | high polyreactivity
7 | QVQLVESGGGLVQAGGSLRLSCAASGFTFGRNVIGWYRQAPGKERELVAAISLSGGSTYYADSVKGRFTISRDNAKNTVYLQMNSLKPEDTAVYYCAAGYITWYDYWGQGTQVTVSS | high polyreactivity
8 | QVQLVESGGGLVQAGGSLRLSCAASGITFFRYAMGWYRQAPGKERELVATIRSGDRTYYADSVKGRFTISRDNAKNTVYLQMNSLKPEDTAVYYCAAYDNRYTIRPENYWGQGTQVTVSS | high polyreactivity
9 | QVQLVESGGGLVQAGGSLRLSCAASGLTFVYNAMGWYRQAPGKERELVADISYDGGGTYYADSVKGRFTISRDNAMNTVYLQMNSLKPEDTAVYYCAKRAFGSQGEISYTPPGYDSWGQGTQVTVSS | low polyreactivity
10 | QVQLVESGGGLVQAGGSLRLSCAASGLIFKYKAMGWYRQAPGKERELVAAISTSGGSTYYADSVKGRFTISRDNAKNTVYLQMNSLKPEDTAVYYCNAVAGRPFRYYYWGQGTQVTVSS | high polyreactivity
11 | QVQLLESGGGLDQAGGSLRISCPASGSIFWSNAMGWYRQAPGKEREFVAALTWSGDNTYFADSVKGRFTISRENAKNTVDLQMNSLKPEDTAVYYCAAVFQNKAVGGVTSIYDCRGQGTQVTVSS | low polyreactivity
12 | QVQLVESGGGLVQAGGSLRLSCAASGSIFDANAMGWYRQAPGKEREVVAAISYRGGRTYYADSVKGRFTISRDNAKNTVYLQMNSLKPEDTAVYYCNAGISHRSDNGIDGYYWGQGTQVTVSS | high polyreactivity
13 | QVQLVESGGGLVQAGGSLRLSCAPSGFSIIGNAMGWYRQAPGKERELVAAISRRGGSTYYADSVKGRFTISRDNAKNTVYLQLNSLKPEDTAVYYCATDPGARVHYPTGDYWGQGTQVTVSS | high polyreactivity
14 | QVQLVESGGGLVQAGGSLRLSCAASGSTFPSYAMGWYRQAPGKESELVAAITNGGSTTYADSVKGRFTISRDNAKNTVYLQMNSLKPEDTAVYYCAARYYYYYYYIRRDYWGQGTQVTVSS | low polyreactivity
15 | QVQLVESGGGLVQAGGSLRLSCAASGLTLKTYAMGWYRQAPGKERELVAGISASGGSTYYADSVKGRFTISRDIAKNTVYLQLNSLKPVDTAVYYCAKVTRAYRAYYYWGQGTQVTVSS | high polyreactivity
16 | QVQLVESGGGLVQAGGTLRLSCAASGSIFGSYAMGWYRQAPGKERELVAAISGSGGRTYYADSVKGRFTISRDNAKNTVYVQMNSLKPEDTAVYYCAAAYPRVTYKYGYYWGQGTHVTVSS | high polyreactivity
17 | QVQLVESGGGLVQAGGSLRLSCAASGRIFWYYAMGWSRQAPGKERELVATISYGGGNTYYADSVKGRFTISRDNAKNTVYLQMNSLKPEDTAVYYCARVPYAYLPYKPFQQYSYDYWGQGTQVTVSS | high polyreactivity
18 | QVQLVESGGGLVQAGGSLRLSCAATGSIFAVYAMGWYRQAPGKERELVARITRGGGSTYYADSVKGRFTISRDNAKNTVYLQMNSLKPEDTAVYYCAAARWSQYRTWMNYWGQGTQVTVSS | high polyreactivity
19 | QVQLVESGGGLVQAGGSLRLSCAASGRTFRFYAMGWYRQAPGKERELVAAIRWSGGSTYYADSVKGRFTISRDNAKNTVYLQMNSLKPEDTAVYYCNADNRWPFGGWYGLDYWGQGTQVTVSS | high polyreactivity
20 | QVQLVESGGGLVQAGGSLRLSCAASGLTFRAYVMGWYRQAPGKERELVAAISVSGGSTYYADSVKGRFTISRDNAKNTVYLQMNSLKPEDTAVYYCAAAAKSWLFDYWGQGTQVTVSS | high polyreactivity
21 | QVQLVESGGGLVQAGGSLRLSCAASGSSFGYYAMGWYRPAPGKERELVAAITRRGVNTYYADSVKGRFTISRDNAKNTVYLQMNSLKPEDTAVYYCAATWWQYAQGLHRYDYWGQGTQVTVSS | high polyreactivity
22 | QVQLVESGGGLVQAGGSLRVSCAASGRTFGYNAMGWYRQAPGKERELVATISWGGGSTYYADSVKVRFTISRDNAKNTVYLQMNSLKPEDTAVYYCAATYWTYPYHYQYKYDYWGQGTQVTVSS | high polyreactivity

Row | Sequence | polyreactivity (PSR sort gate)
23 | QVRLVESGGGLVQAGGSLRLSCAASAFTFDSYAMGWNRQAPGKERELVAAITWSGGSTYYADSVKGRFTISRDIAKNTVYFQMNSLKPEDTAVYYCNVDRYDGDYCGQGTQVTVSS | high polyreactivity
24 | QVKLVESGGGLVQAGGSLRLSCAASGSIFALYAMGWYRQAPGKEREFVARISWGGGRTYYADSVKGRFTISRDNAQNTVYLQMNSLKPEDTAVYYCNAERAGTYSYDYWGQGTQVTVSS | high polyreactivity
25 | QVQLVESGGGLVQAGGSLRLSCAASGFIFANYAKGWYRPAPGKERELVAAISSGGITYYADSVKGRFTISRDNAKNTVYLQMNSRKPEDTAVYYCACDVRYQDRSGEYHHWDGDYWGQGTQVTVTS | low polyreactivity
26 | QVQLVESGGGLVQAGGSLRLSCAASGRTFSPNAMGWYRQAPGKERELVAAITRSDGRTYYADSVKGRFTISRDNAKNTVYLQMNSLKPEDTAVYYCAVDGYYPPAWYEYDYWGQGTQVTVSS | high polyreactivity
27 | QVQLVESGGGLVQAGGSLRLSCADSARIFSFNTMGWYRQAPGKETELVAAISYRGRTYYADSVKGRFTISRDNAKKTVYLQMNSLKPEDTAVYYCIAVYGYWYGSWGQGTQVTVSS | high polyreactivity
28 | QVQLVESGGGLVQAGGSLRLSRAASGRTFRTYAMGWYRQAPGKERELVAAITSGGNTYYADSVKGRFTISRDNAKNTVYLLMNSLKPDDTAVYYCAAAASGFSRYRSTTWGQGTQGTVSS | high polyreactivity
29 | QVQLVESGGGLVQAGGSLRLSCAASGSTFPKYAMGWYRQAPGKERELVAGISWRGGRTYYADSVKGRFTISRDNAKNTVYLQMNSLKPEDTAVYYCATDYYAFNQGEVKWYDYWGQGTQVSVSS | high polyreactivity
30 | QVQLVESGGGLVQAGGSLRLSCAASGFIFYYYAMGWYRQATGKERELDASISSDGSTYYADSVKGRFTISRDNAKNTVYLQMNSLKPEDTAVYYCNADRYYPDDLSDGVGTYDYWGQGTQVTVSS | low polyreactivity
31 | QVQLVESGGGLVQAGGSLRLSCAASGSTFSSNAMGWYRQAPGKERELVAAINRTGNTYYADSVKGRFTISRDNAKNTVYLQMNSLKPEDTAVYYCNTDLNLYRGGGYWGQGTQVTVSS | low polyreactivity
32 | QDQLVESGGGLVQAGGSLRLSCAASGSTFSGYGMGWYRQAPGKERELVAAITSSGGRTYYADSVKGRFTISRDNAKNTVYLQMNSLKPEDTAVYYCAALYYHEYDYWGQGTQVTVSS | low polyreactivity
33 | QVQLVESGGGLVQAGGSLRLSCAASGIIFFRNPMGWYRQAPGKERELVAAISSGGSTYYADSVKGRFTISRDNAKNTVYLQMNSLKPEDTAVYYCNQVGPLYYASYDYWGQGTQGTVSS | low polyreactivity
34 | QVQLVESGGGLVQAGGSLRLSCAASGLIFRYYAMGWYRQAPGKERELVAAITWRGGRTYYADSVKGRFTISRDNAKNTVYLQMNSLKPEDTAVYYCNKDGPYQVITYDYWGQGTQVTVSS | high polyreactivity
35 | QVQLVDSGGGLVQAGGSLRLSCAASGLIFDVYAMGWYRQAPGKERELVAVISSDGGTYYADSVKGLFTISRDNAKNTVYLQMISLKPEYTAVYYCAARRWREGARYSYWGQGTQVTVSS | high polyreactivity
36 | QVQLVESGGGLVQAGGSLRLSCAASGSIFYYYAMGWYRQAPGKERELVAAISSGGVRTYYADSVKGRFTISRDNAKNTVYLQMKSLKPEDTAVYYCAKDVHSGVTLIHERYYWGQGTQVTVSS | low polyreactivity
37 | QDQLVESGGGLVQAGGSLRLSCAASGRTFSRYTMGWYRQAPGKERELVAAISKRGGSTYYADSVKGRLTISRDNAKNTVYLQMNSLKPADTAVYYCNAYGLVGLDGVKMYYWGQGTQVTVSS | high polyreactivity
38 | QVQLVESGGGLVQAGGILRLSCAASGSTFDYNTMGWYRQAPGKERELVAAISESGGSTYYADSVKGRFTISRDNAKNTVYLQMNSLKPEDTAVYYCATDDFGGYFGEYDYWGQGTQVTVSS | low polyreactivity
39 | QVQLVESGGGLVQAGGSLRLSCAASGSTFFCYAMGWYRQAPGKERELVAAISRSGDRTYYADSVKGRFTISRDNAKNTVYLQMKSLKPEDTAVYYCAAKGFKPSDWGQGTQVTVSS | high polyreactivity
40 | QVQLVESGGGLVQAGGSLRLSCAASVRIFGSNVMGWYRQAPGKERELVASISSGGTTYYADSVKGLFTISRDNAKNTVYLQMNSLKPEDTAGYYCAKQWTRIYQYRWYPGTRTGYDYWGHGTQVTVSS | high polyreactivity
41 | QVQLVESGGGLVQAGGSLRLSCAASGSTLGVYAMGWYRQAPGKERELVAAITIGGSTNFADSVKGRFTISRDNAKNTVYLQLNSLKPEDTAVYYCNAYYYWEGHGYTLLSYYYWGQGTQVTVSS | low polyreactivity
42 | QVQLVESGGGLVQAGGSLRLSCAASGSIYYAMGWYRQAPGKESEFVAAINSGGSTYYADSVKGRFTISRDNAKNTVYLQMNSLKPEDTAVYYCAKPTYRFYWGDFDYWGQGTQVTVSS | low polyreactivity
43 | QVQLVESGGGLVQAGYSLRLSFAASGITFRYYAMGWYRQATGKERELVAGITWSGPSTYYADSVKGRFTISRDNAKNTVYLQMNILKPEYTAVFYCAVDYGLYFTFDYWGQGTQVTVSS | low polyreactivity
